Test results as given in publication PMC9871958 (Protein & Cell, 2022).
Numbering of substitutions follows the chain as printed.

B1: 1F mutated at R102 (antibody, V domains shown)
VH: EVQLVESGPGLVKPSETLSLTCTVSGGSISSSSYYWGWIRQPPGKGLEWIGSIYYRGSTYYNPSLKSRVTISVDTSKNQFSLKLSSVTAADTAVYYCARHVASAYYYGSGSYRDEGNWFDPWGQGTLVTVSS
VL: QSVLTQPPSVSGAPGQRVTISCTGTRSNIGAGHDVHWYQQLPGTAPKLLIYGNNNRPSGVPDRFSGAKSGTSASLAITGLQAEDEADYYCQSYDRTLTSYVFGTGTKVTVL
notes: also called mutated 1F (R102)
B2: 1F mutated at D114 (antibody, V domains shown)
VH: B1 VH with A102R, D114A
VL: B1 VL
notes: also called mutated 1F (D114)

Target: SARS-CoV-2 RBD protein (SARS-CoV-2, UniProt P0DTC2)
Assay: ELISA
Settings: both partners purified

Binder | binding result
B1 | no binding
B2 | no binding
